Test results taken from patent publication EP4361176A1 (CHUGAI SEIYAKU KABUSHIKI KAISHA, dated 2024).
Substitutions are numbered along the chain they refer to. In names and notes the source's numbering stands. Each block holds one binder with its values, some of them ahead of it.

How the values were obtained:
[1] = biological target: hFcyRIIIaV on hFcyRIIIaV-expressing Jurkat cells (human, UniProt P08637 17-254); experiment: cell-based or functional assay
[2] = biological target: T1, hFcyRIIaH on hFcyRIIaH-expressing Jurkat cells (human, UniProt P12318 34-317); experiment: cell-based or functional assay
T1 sequence (looked up): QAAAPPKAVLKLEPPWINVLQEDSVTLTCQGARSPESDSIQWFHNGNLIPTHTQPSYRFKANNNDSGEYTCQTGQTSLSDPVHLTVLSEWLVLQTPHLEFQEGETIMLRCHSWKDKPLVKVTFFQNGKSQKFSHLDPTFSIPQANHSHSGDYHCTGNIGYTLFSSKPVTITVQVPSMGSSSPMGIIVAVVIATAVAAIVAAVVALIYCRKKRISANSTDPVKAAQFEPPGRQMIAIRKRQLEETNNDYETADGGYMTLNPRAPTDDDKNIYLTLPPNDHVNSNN

[3] = biological target: T2, human FcγRIIa H extracellular domain (human, UniProt P12318 34-217); experiment: SPR; KD for FcγRIIb divided by KD for this FcγR
T2 construct: extracellular domain; Made by the method of WO2014104165; also called hFcγR IIa H; FcyRIIaH
T2 sequence (looked up): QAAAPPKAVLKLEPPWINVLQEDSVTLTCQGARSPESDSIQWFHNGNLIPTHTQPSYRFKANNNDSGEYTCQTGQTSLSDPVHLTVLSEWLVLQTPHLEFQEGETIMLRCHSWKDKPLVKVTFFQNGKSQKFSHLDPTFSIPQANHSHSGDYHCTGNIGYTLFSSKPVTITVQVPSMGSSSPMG

[4] = biological target: T3, human FcγRIIIa F extracellular domain (human, UniProt P08637 17-208); experiment: SPR; KD for FcγRIIb divided by KD for this FcγR
T3 construct: extracellular domain; Made by the method of WO2014104165; also called hFcγR IIIa F; FcyRIIIaF
T3 sequence (P08637 17-208): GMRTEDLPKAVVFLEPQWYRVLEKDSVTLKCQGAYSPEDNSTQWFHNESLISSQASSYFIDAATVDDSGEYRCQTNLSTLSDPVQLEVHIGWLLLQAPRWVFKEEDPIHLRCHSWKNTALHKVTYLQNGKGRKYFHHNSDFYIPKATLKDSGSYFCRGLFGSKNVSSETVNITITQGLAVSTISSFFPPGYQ

[5] = biological target: T4, human CTLA4 (soluble analyte of the Biacore assays of Reference Example 3-3) (human, UniProt P16410 36-161); experiment: SPR, 1000 nM CTLA4, per unit antibody, no ATP
T4 construct: also called hCTLA4
T4 sequence: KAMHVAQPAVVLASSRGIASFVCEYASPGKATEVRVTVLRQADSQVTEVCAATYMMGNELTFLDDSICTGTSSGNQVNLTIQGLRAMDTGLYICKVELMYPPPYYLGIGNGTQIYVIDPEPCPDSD

[6] = biological target: T4, human CTLA4 (soluble analyte of the …); experiment: SPR, 1000 nM CTLA4, per unit antibody, ATP 1 uM
[7] = biological target: T4, human CTLA4 (soluble analyte of the …); experiment: SPR, 1000 nM CTLA4, per unit antibody, ATP 10 uM
[8] = biological target: T4, human CTLA4 (soluble analyte of the …); experiment: SPR, 1000 nM CTLA4, per unit antibody, ATP 100 uM

Chain of hFcyRIIIaV on hFcyRIIIaV-expressing Jurkat cells (P08637 17-254): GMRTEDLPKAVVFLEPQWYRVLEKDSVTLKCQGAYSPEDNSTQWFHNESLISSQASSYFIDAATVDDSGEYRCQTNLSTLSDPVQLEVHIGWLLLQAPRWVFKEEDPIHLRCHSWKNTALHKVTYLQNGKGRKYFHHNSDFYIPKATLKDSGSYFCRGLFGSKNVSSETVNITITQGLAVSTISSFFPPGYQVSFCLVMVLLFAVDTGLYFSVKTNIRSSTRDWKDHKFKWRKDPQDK

B6: 04H1207-G1m/04L1086-lam1 (antibody, human IgG1, lambda, V domains shown)
VH: EVQLVESGGGLVKPGGSLRLSCAASGFTFSSKTMNWVRQAPGKGLEWVSSISTRSGYIYYAESVKGRFTISRDNAKNSLYLQMNSLRAEDTAVYYCARYGKREDMLWVFDYWGQGTLVTVSS
VL: QSALTQPPSASGSPGQTVTISCDGPSTGVGDYNYVHWYQQHPGKAPKLMIYFTSKKPSGVPDRFSGSKSGNTASLTVSGLQAEDEADYFCQTYAAPLGPMFGGGTKLTVLG
Binding to Human CTLA4 [5]: 0.013
Binding to Human CTLA4 [6]: 0.047
Binding to Human CTLA4 [7]: 0.137
Binding to Human CTLA4 [8]: 0.196

B7: 04H1077-G1m/04L1086-lam1 (antibody, human IgG1, lambda, V domains shown)
VH: B6 VH with G10D, S17G, K32R
VL: B6 VL
Binding to Human CTLA4 [5]: 0.01
Binding to Human CTLA4 [6]: 0.031
Binding to Human CTLA4 [7]: 0.106
Binding to Human CTLA4 [8]: 0.181

B9: 04H1077-G1m/04L1041-lam1 (antibody, human IgG1, lambda, V domains shown)
VH: B6 VH with G10D, S17G, K32R
VL: B6 VL with G28D, Q91S
Binding to Human CTLA4 [5]: 0.006
Binding to Human CTLA4 [6]: 0.023
Binding to Human CTLA4 [7]: 0.094
Binding to Human CTLA4 [8]: 0.172

B10: 04H1077-G1m/04L1066-lam1 (antibody, human IgG1, lambda, V domains shown)
VH: B6 VH with G10D, S17G, K32R
VL: B6 VL with G28D, Y34W, Q91S
Binding to Human CTLA4 [5]: 0.02
Binding to Human CTLA4 [6]: 0.057
Binding to Human CTLA4 [7]: 0.142
Binding to Human CTLA4 [8]: 0.185

B12: 04H1077-G1m/04L1034-lam1 (antibody, human IgG1, lambda, V domains shown)
VH: B6 VH with G10D, S17G, K32R
VL: B6 VL with G28D, Y34W, H36S, Q91S
Binding to Human CTLA4 [5]: 0.004
Binding to Human CTLA4 [6]: 0.007
Binding to Human CTLA4 [7]: 0.041
Binding to Human CTLA4 [8]: 0.114

B13: 04H1077-G1m/04L1067-lam1 (antibody, human IgG1, lambda, V domains shown)
VH: B6 VH with G10D, S17G, K32R
VL: B6 VL with Q91S
Binding to Human CTLA4 [5]: 0.012
Binding to Human CTLA4 [6]: 0.041
Binding to Human CTLA4 [7]: 0.131
Binding to Human CTLA4 [8]: 0.192

The next lines start with the values.

EC50 value (µg/mL), ADCC reporter bioassay (fold induction of luminescence), Hepa1-6/hEREG target cells [1]: 0.0015 µg/mL
EC50 value (µg/mL), ADCP reporter bioassay (fold induction of luminescence), Hepa1-6/hEREG target cells [2]: 0.0192 µg/mL
A/I ratio (KD for FcγRIIb divided by KD for each FcyR) [3]: 307
A/I ratio (KD for FcγRIIb divided by KD for each FcyR) [4]: 976
B1: H240-Kn462/L73-k0//H240-Hl445/L73-k0 (antibody, human IgG1, kappa)
heavy 1: QDQLVQSGAEVKKPGASVKVSCKASGFNIKDTYIQWVRQAPGQGLEWMGRIDPLRKQTKYREKFEGRVTITADTSTNTAYMELSSLRSEDTAVYYCVRSGREFDYWGQGTLVTVSSASTKGPSVFPLAPSSKSTSGGTAALGCLVKDYFPEPVTVSWNSGALTSGVHTFPAVLQSSGLYSLSSVVTVPSSSLGTQTYICNVNHKPSNTKVDKKVEPKSCDKTHTCPPCPAPEFQWGPMVFLFPPKPKDVLMISRTPEVTCVVVDVSDEEPEVKFNWYVDGVEVHNAKTKPREEQYNATYRVVSVLPVLHQDWLNGKEYKCKVSNDALPAPIEKTISKAKGQPREPQVCTLPPSRDELTKNQVSLWCLVKGFYPSDIAVEWESNGQPENNYKTTPPVLDSDGSFFLYSKLTVDKSRWQQGNVFSCSVMHEALHNHYTQKSLSLSP
heavy 2: QDQLVQSGAEVKKPGASVKVSCKASGFNIKDTYIQWVRQAPGQGLEWMGRIDPLRKQTKYREKFEGRVTITADTSTNTAYMELSSLRSEDTAVYYCVRSGREFDYWGQGTLVTVSSASTKGPSVFPLAPSSKSTSGGTAALGCLVKDYFPEPVTVSWNSGALTSGVHTFPAVLQSSGLYSLSSVVTVPSSSLGTQTYICNVNHKPSNTKVDKKVEPKSCDKTHTCPPCPAPELLAGPSVFLFPPKPKDVLMISRTPEVTCVVVDVSHEEPEVKFNWYVDGVEVHNAKTKPREEQYNATYRVVSVLPVLHQDWLNGKEYKCKVSNDALPKPDEETISKAKGQPREPQVYTLPPSRCELTKNQVSLSCAVKGFYPSDIAVEWESNGQPENNYKTTPPVLDSDGSFFLVSKLTVDKSRWQQGNVFSCSVMHEALHNHYTQKSLSLSP
light: DIQMTQSPSSLSASVGDRVTITCRASQDIHKYIAWYQQKPGQAPRLLIQYTSTLQPGVPSRFSGSGSGTDYTFTISSLQPEDIATYYCLQYEQLRTFGGGTKVEIKRTVAAPSVFIFPPSDEQLKSGTASVVCLLNNFYPREAKVQWKVDNALQSGNSQESVTEQDSKDSTYSLSSTLTLSKADYEKHKVYACEVTHQGLSSPVTKSFNRGEC
notes: also called EGL-ART6; ART6

EC50 value (µg/mL), ADCC reporter bioassay (fold induction of luminescence), Hepa1-6/hEREG target cells [1]: 0.000304 µg/mL
EC50 value (µg/mL), ADCP reporter bioassay (fold induction of luminescence), Hepa1-6/hEREG target cells [2]: 0.085 µg/mL
A/I ratio (KD for FcγRIIb divided by KD for each FcyR) [3]: 60.3
A/I ratio (KD for FcγRIIb divided by KD for each FcyR) [4]: 4310
B2: H240-Kn498/L73-k0//H240-Hl518/L73-k0 (antibody, human IgG1, kappa)
heavy 1: B1 heavy 1 with D325K, A329M
heavy 2: B1 heavy 2 with A235G, K329M, D331I
light: B1 light
notes: also called EGL-ART12; ART12

EC50 value (µg/mL), ADCC reporter bioassay (fold induction of luminescence), Hepa1-6/hEREG target cells [1]: 0.000107 µg/mL
EC50 value (µg/mL), ADCP reporter bioassay (fold induction of luminescence), Hepa1-6/hEREG target cells [2]: 0.0419 µg/mL
A/I ratio (KD for FcγRIIb divided by KD for each FcyR) [3]: 17.3
A/I ratio (KD for FcγRIIb divided by KD for each FcyR) [4]: 3160
B3: H240-Kn494/L73-k0//H240-Hl514/L73-k0 (antibody, human IgG1, kappa)
heavy 1: B1 heavy 1 with D325K, I331E
heavy 2: B1 heavy 2 with A235G, K329A, D331E
light: B1 light
notes: '1332E' read as I332E; also called EGL-ART10; ART10

EC50 value (µg/mL), ADCC reporter bioassay (fold induction of luminescence), Hepa1-6/hEREG target cells [1]: 0.00208 µg/mL
EC50 value (µg/mL), ADCP reporter bioassay (fold induction of luminescence), Hepa1-6/hEREG target cells [2]: 0.0324 µg/mL
A/I ratio (KD for FcγRIIb divided by KD for each FcyR) [3]: 16.5
A/I ratio (KD for FcγRIIb divided by KD for each FcyR) [4]: 89.3
B4: H240-GASDALIE/L73-k0 (antibody, human IgG1, kappa)
heavy: QDQLVQSGAEVKKPGASVKVSCKASGFNIKDTYIQWVRQAPGQGLEWMGRIDPLRKQTKYREKFEGRVTITADTSTNTAYMELSSLRSEDTAVYYCVRSGREFDYWGQGTLVTVSSASTKGPSVFPLAPSSKSTSGGTAALGCLVKDYFPEPVTVSWNSGALTSGVHTFPAVLQSSGLYSLSSVVTVPSSSLGTQTYICNVNHKPSNTKVDKKVEPKSCDKTHTCPPCPAPELLAGPDVFLFPPKPKDTLMISRTPEVTCVVVDVSHEDPEVKFNWYVDGVEVHNAKTKPREEQYNSTYRVVSVLTVLHQDWLNGKEYKCKVSNKALPLPEEKTISKAKGQPREPQVYTLPPSRDELTKNQVSLTCLVKGFYPSDIAVEWESNGQPENNYKTTPPVLDSDGSFFLYSKLTVDKSRWQQGNVFSCSVMHEALHNHYTQKSLSLSP
light: B1 light

EC50 value (µg/mL), ADCC reporter bioassay (fold induction of luminescence), Hepa1-6/hEREG target cells [1]: 0.0037 µg/mL
EC50 value (µg/mL), ADCP reporter bioassay (fold induction of luminescence), Hepa1-6/hEREG target cells [2]: 0.0149 µg/mL
A/I ratio (KD for FcγRIIb divided by KD for each FcyR) [3]: 18.2
A/I ratio (KD for FcγRIIb divided by KD for each FcyR) [4]: 18.9
B5: H240-Kn037/L73-k0//H240-Hl036/L73-k0 (antibody, human IgG1, kappa)
heavy 1: B4 heavy with L329A, Y348C, T365W
heavy 2: B4 heavy with L329A, D355C, T365S, L367A, Y406V
light: B1 light
notes: also called EGL-GASDIE; GASDIE

Binding to Human CTLA4 [5]: 0.005
Binding to Human CTLA4 [6]: 0.03
Binding to Human CTLA4 [7]: 0.108
Binding to Human CTLA4 [8]: 0.17
B8: 04H1208-G1m/04L1086-lam1 (antibody, human IgG1, lambda, V domains shown)
VH: B6 VH with E62R
VL: B6 VL

Binding to Human CTLA4 [5]: 0.018
Binding to Human CTLA4 [6]: 0.046
Binding to Human CTLA4 [7]: 0.128
Binding to Human CTLA4 [8]: 0.185
B11: 04H1077-G1m/04L1305-k0MT (antibody, human IgG1, kappa, V domains shown)
VH: B6 VH with G10D, S17G, K32R
VL: DIVMTQSPLSLPVTPGEPASISCDGPSTGVGDYNYVHWYQQKPGQAPRLLIYFTSKKPSGVPDRFSGSGSGTDFTLKISRVEAEDVGVYYCQTYAAPLGPMFGQGTKLEIKR
